Reference: patent US20250283060 (BOARD OF REGENTS, THE UNIVERSITY OF TEXAS SYSTEM, published 2025)

How the values were obtained:
NPT7 variant ES-443 (V3) = NPT7 variant ES-443 (V3) (synthetic construct); test: cell_activity; ZsGreen reporter fluorescence in S. cerevisiae; reflects transcription and capping; settings: tags: SV40 NLS N-terminal
[1] = target: NPT7 v443 with NLS removed (synthetic construct); test: cell_activity; ZsGreen reporter in HEK293T, 48 h, cytoplasmic; settings: tags: NLS removed

B1: T7 promoter WT (dsDNA)
DNA 1: TAATACGACTCACTATA
DNA 2: TATAGTGAGTCGTATTA
Q: B1 was tested. Which binding signal (NPT7 variant ES-443 (V3)) did it give?
A: The binding signal was 76 fold vs K282A control.

Q: What about the binding signal [1] of the same binder?
A: Its binding signal is ~1.8 fold vs WT NPT7.
